Results reported in article PMC8918029 (Journal of medicinal chemistry, 2021).
Square brackets hold non-standard residues; d marks the D form. * marks the point of attachment. Boc = CC(C)(C)OC(=O)*; Aib = CC(C)(N)C(=O)O

Target: γ-secretase complex (presenilin-1, nicastrin, Aph-1, Pen-2) (UniProt Q92542 34-709; Q96BI3 1-265; Q9NZ42 1-101)
Experiment: enzyme inhibition kinetics

Boc-VG[Aib]VVI[Aib]FV[Aib]GGGVFFLV-NH2 (also: hydroxyethylurea isostere (ψ) between the two Phe (15-16)) [HPI-TSA conjugate 28] was tested, and the Ki was 1.19 ± 0.1 nM.
